In article PMC2174547 (The Journal of Cell Biology, 2000):
“And” between values parts separate entries of the source, which are not always exact repeats. Equal entries are not always repeated.

T1: 6xHis-PEX19 (human, UniProt P40855 1-299)
T1 sequence: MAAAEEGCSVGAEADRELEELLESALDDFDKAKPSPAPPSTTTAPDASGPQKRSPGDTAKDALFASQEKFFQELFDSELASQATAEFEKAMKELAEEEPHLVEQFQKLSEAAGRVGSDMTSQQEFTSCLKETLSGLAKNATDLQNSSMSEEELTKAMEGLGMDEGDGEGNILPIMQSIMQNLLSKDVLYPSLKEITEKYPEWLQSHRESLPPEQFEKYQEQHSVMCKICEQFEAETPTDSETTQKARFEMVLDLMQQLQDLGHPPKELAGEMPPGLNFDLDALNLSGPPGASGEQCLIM


Legend:
6xHis-PEX19 (human) = 6xHis-PEX19 (human) (UniProt P40855); assay: far-Western, overlay or dot blot
6xHis-PEX19 = target: T1, 6xHis-PEX19; assay: far-Western, overlay or dot blot

Row | IC50 (6xHis-PEX19) [µM] | Molecule | Kd (6xHis-PEX19 (human))
1 | – | 6xHis-PEX14 (from UniProt O75381 1-377) (natural protein) | 0.35 µM and 0.8 µM and 0.5 µM
2 | 30 | 6xHis-PEX14 amino acids 1–147 (domain or fragment) MASSEQAEQPSQPSSTPGSENVLPREPLIATAVKFLQNSRVRQSPLATRRAFLKKKGLTDEEIDMAFQQSGTAADEPSSLGPATQVVPVQPPHLISQPYSPAGSRWRDYGALAIIMAGIAFGFHQLYKKYLLPLILGGREDRKQLER | –
